US20240352102A1 (UNITED STATES GOVERNMENT AS REPRESENTED BY THE DEPARTMENT …, published 2024)

Legend:
Test in all cases: peptide microarray
Peptide_037 = biological target: T1, Peptide_037
T1 peptide: KTPPAPKTPPSSGEP

Peptide_038 = biological target: T2, Peptide_038
T2 peptide: APKTPPSSGEPPKSG

Peptide_044 = biological target: T3, Peptide_044
T3 peptide: SPGTPGSRSRTPSLP

Peptide_045 = biological target: T4, Peptide_045
T4 peptide: PGSRSRTPSLPTPPT

Peptide_046 = biological target: Peptide_046
Peptide_055 = biological target: T5, Peptide_055
T5 peptide: APVPMPDLKNVKSKI

Peptide_058 = biological target: T6, Peptide_058
T6 peptide: SKIGSTENLKHQPGG

Peptide_062 = biological target: T7, Peptide_062
T7 peptide: KVQIINKKLDLSNVQ

Peptide_066 = biological target: T8, Peptide_066
T8 peptide: KCGSKDNIKHVPGGG

Peptide_068 = biological target: T9, Peptide_068
T9 peptide: KHVPGGGSVQIVYKP

Peptide_072 = biological target: T10, Peptide_072
T10 peptide: DLSKVTSKCGSLGNI

Peptide_074 = biological target: T11, Peptide_074
T11 peptide: CGSLGNIHHKPGGGQ

binding result (Peptide_037): no binding (tested: 1 ug/ml)
binding result (Peptide_038): no binding (tested: 1 ug/ml)
binding result (Peptide_044): no binding (tested: 1 ug/ml)
binding result (Peptide_045): no binding (tested: 1 ug/ml)
binding result (Peptide_046): no binding (tested: 1 ug/ml)
binding result (Peptide_055): no binding (tested: 1 ug/ml)
binding result (Peptide_058): no binding (tested: 1 ug/ml)
binding result (Peptide_062): no binding (tested: 1 ug/ml)
binding result (Peptide_066): no binding (tested: 1 ug/ml)
binding result (Peptide_068): no binding (tested: 1 ug/ml)
binding result (Peptide_072): no binding (tested: 1 ug/ml)
binding result (Peptide_074): no binding (tested: 1 ug/ml)
B1: mAb TRC35 (antibody, V domains shown)
VH: QVQLQQPGTELVKPGASVKLSCKASGYTFTSYWLQWVKQRPGQGLEWIGEIDPSDSYTNYNQKFKGKATLTVDTSSSTAYMQLSSLTSEDSAVYYCATLTGSWGQGTTLAVSS
VL: DVLLTQTPLSLPVSLGDQASISCRASQSIVDSNGNTFLEWYLQKSGQSPKVLIYKVSNRFSGVPDRFSGRGSGTDFTLKISRVEAEDLGVYYCFQGSHVPYTFGGGTKLEIK
notes: Mouse hybridoma monoclonal antibody raised in tau knockout mice against tau/poly(A) RNA complexes; IgG1 isotype, kappa light chain; also called TRC35 monoclonal antibody; hybridoma clone #35
